Laboratory results taken from paper PMC7549910.

Experiments:
human factor H (human) [1] = biological target: human factor H (human) (UniProt P08603)
[2] = biological target: elongation factor Tu (EF-Tu) of M. hyopneumoniae strain 168, endogenous (M. hyopneumoniae (endogenous in strain 168))
human factor H (human) [3] = biological target: human factor H (human) (UniProt P08603); assay: SPR; BIAcore X100 Plus; factor H amine-coupled to a CM5 chip (712 RU); recombinant EF-Tu 0-14 uM as analyte in HBS-EP (10 mM HEPES, 150 mM NaCl, 3 mM EDTA, 0.05% P20), 30 uL/min, 180 s, 20°C

Sequence of human factor H (human) (P08603 19-1231): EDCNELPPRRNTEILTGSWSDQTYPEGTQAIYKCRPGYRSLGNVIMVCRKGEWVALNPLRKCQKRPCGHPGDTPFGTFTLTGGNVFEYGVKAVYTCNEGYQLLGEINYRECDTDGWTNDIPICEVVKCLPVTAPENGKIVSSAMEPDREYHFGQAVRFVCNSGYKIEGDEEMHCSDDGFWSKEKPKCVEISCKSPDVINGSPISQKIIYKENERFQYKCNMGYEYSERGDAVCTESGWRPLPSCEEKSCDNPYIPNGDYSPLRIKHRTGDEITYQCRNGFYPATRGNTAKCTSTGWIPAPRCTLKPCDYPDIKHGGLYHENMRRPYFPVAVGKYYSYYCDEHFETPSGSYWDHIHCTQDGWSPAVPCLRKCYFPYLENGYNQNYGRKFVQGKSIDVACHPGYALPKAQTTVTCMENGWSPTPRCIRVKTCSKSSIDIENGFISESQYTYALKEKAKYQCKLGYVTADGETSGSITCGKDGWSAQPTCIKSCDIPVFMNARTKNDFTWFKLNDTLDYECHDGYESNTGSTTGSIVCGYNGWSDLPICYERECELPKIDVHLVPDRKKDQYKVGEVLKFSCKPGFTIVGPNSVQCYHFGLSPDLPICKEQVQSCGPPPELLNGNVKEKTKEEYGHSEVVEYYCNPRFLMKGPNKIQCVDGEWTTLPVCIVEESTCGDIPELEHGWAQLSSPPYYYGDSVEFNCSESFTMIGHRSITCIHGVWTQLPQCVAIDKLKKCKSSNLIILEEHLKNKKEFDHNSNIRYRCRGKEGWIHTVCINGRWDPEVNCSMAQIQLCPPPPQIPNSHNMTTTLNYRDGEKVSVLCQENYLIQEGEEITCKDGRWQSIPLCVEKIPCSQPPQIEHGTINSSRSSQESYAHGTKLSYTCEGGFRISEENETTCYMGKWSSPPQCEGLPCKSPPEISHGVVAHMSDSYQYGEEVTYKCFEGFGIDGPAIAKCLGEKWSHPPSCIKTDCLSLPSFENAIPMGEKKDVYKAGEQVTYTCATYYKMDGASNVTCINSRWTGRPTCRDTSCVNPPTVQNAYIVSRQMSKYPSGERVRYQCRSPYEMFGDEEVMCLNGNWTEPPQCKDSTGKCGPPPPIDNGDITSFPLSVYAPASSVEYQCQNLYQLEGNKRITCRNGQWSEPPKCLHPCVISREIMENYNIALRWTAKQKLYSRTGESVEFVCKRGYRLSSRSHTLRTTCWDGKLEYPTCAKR
Sequence of human factor H (P08603 19-1231): as above
Sequence of elongation factor Tu (EF-Tu) of M. hyopneumoniae strain 168, endogenous (M. hyopneumoniae (endogenous in strain 168)) (Q4A7K0 whole entry): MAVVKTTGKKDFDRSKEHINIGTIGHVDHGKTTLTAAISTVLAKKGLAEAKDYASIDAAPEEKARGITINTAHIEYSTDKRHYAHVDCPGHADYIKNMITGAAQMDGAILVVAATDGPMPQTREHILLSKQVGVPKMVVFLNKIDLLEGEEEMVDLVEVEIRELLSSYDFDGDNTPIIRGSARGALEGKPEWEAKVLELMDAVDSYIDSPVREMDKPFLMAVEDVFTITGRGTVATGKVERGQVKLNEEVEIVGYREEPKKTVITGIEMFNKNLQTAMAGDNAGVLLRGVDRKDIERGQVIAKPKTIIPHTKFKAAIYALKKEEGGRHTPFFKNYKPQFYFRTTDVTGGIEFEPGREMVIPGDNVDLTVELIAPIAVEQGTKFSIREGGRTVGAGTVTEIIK
Sequence of elongation factor Tu (EF-Tu) of M. hyopneumoniae strain 168, endogenous (natural protein) (Q4A7K0 whole entry): as above
Sequence of recombinant full-length EF-Tu of M. hyopneumoniae (Q4A7K0 whole entry): as above

Question: For “elongation factor Tu (EF-Tu) of M. hyopneumoniae strain 168, endogenous (natural protein)”, which binding of M. hyopneumoniae cells to factor H immobilised on 96-well plates (qPCR count) after preincubation with anti-EF-Tu polyclonal antibodies against preimmune serum (human factor H (human) [1]) is on record?
Answer: 47.7%

Question: With “human factor H (from UniProt P08603 19-1231) (natural protein)” as the substance, how does the C3 fragment deposition on M. hyopneumoniae cells by flow cytometry, anti-EF-Tu antibodies against preimmune sera, with factor H [2] read?
Answer: 8 fold

Question: “recombinant full-length EF-Tu of M. hyopneumoniae (from UniProt Q4A7K0 1-402) (natural protein; other documents disagree on this pair)” was tested. Which Kd (human factor H (human) [3]) did it give?
Answer: 7.83 µM
